According to PMC8420576:

Biological target: SARS-CoV-2 Spike RBD (residues 334–527), C-terminal Avi-His6 tag, biotinylated (SARS-CoV-2) (UniProt P0DTC2)
Experiment: BLI

VHH72
Kd: 27 nM | koff: 0.0036 s⁻¹
